Test: yeast display, Sf9 membrane polyspecificity reagent, FACS + sequencing; frameworks hold sequencing errors
Method in brief: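 Nanobodies from a synthetic yeast display library (Saccharomyces cerevisiae BJ5465), induced 36–48 hours with galactose, were stained 1 hour at 4 °C with 10% biotinylated, detergent-solubilized Sf9 membrane reagent, enriched on streptavidin microbeads, then FACS-sorted. Anti-HA (expression) and streptavidin (reagent binding) fluorescence set low and high (top ~1%) gates. Polyreactivity labels come from the gate of origin. Genes were colony-PCR amplified, MiSeq 2 × 250 sequenced and filtered by CDR length.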

| Sequence | polyreactivity (PSR sort gate) |
| --- | --- |
| QVQLVESGGGLVQAGGSLRLSCAASGSIFGEYAMGWYRQAPGKERELVADITTGGNTNYADSVKGRFTISRDYAKNTVYLQMNSLKPEDTAVYYCADEANYYVIFHGSWYTDDYWGQGTQVTVSS | low polyreactivity |
| QVQLVESGGGLVQAGGSLRLICSASGRIFSYNVMGWYRQAPGKEREVVAAITSNDGSTYYADSVKGRFTISRDNAKNTVYLQMNSLKPEDTAVYYCAAPYDYAEYYYWGQGTQVTVSS | low polyreactivity |
| QVQLVESGGGLVQAGGSLRLSCAASGITFYVYTMGWDRQAPGKERELVAAITWSGGSTYYADSVKGRFTISRDNAKNTVYLQMKSLKPEDTAVYYCNRVGYWVGLDSWGQGTQVTVSS | high polyreactivity |
| QVQLVESGGGLVQAGGSLRLSCAASGSTFGRYTMGWYRQAPRKERELVAAITSGGGSTYYADSVKGRFTISRDNAKNTVYLQMNSLKPEDTAVYYCAARSLVQDHAYGYNYWGQGTQVTVSS | low polyreactivity |
| QVQLVESGGCIVQAGGSLRLSCAASGFTFRTNTKGWYRQAPGKDRELVAAISRSGGSTYYADSVKGRFTISRDNAKNTVYLQMNSLKPEDTAVYDCNAVGRSDSYYLAYNYWGQGTQVTVSS | high polyreactivity |
| QVHLVESGGGLVQAGGSLGLSCAASGFTFANNAMGWYRQAPGKERELVAAISSSGGSTYYADSVKVRFTISRDNAKKTVYLQMNSLKPEDTAVYYCAARRRGSYYGYGYWGQGTQVTVSS | high polyreactivity |
| QVQLQESGGGLVQAGGSQRLSCAASGYIIYFQYMGWYRQAPRKEREFVAAISDGANTNYADSVKGRFTISRDNAKNTVYLQMNSLKPEDTAVYYCAVYADENYYYIYWGQGTQVTVSS | low polyreactivity |
| QVQLVESGGGLVQAGGSLRLTCAASGRTFGPYAMGWYRPAPGKERELVAAIRYIDDSTFYADSVKGRFTISRDNAKNTVYLQMNSLKPEDTAVYYCAAQRRVVGRHGLSLIRYDYWGQGTQVTVSS | low polyreactivity |
| QVQLVESGGGLVQAGGSLRLSCAASGRIFIYYAMGWYRQAPGKERELVAAITSGGSTIYADSVKGRFTIPRDNAKNTVYLQMNSLKPEDTAVYDCAARYVRSQTRFDYWGQGTQVTVSS | high polyreactivity |
| QVQLVESGGGLVQAGGSLRLSCAASGRIFYSYGMGWSRQGPGKERELVASITISGGGSTYYADSVKGRFTISRDNAKNTVYLQMISLKPEATAVYYCAATLTVWKYIYDYWGQGTQVTVSS | high polyreactivity |
| QVQLVESGGGLVQAGGSLRLSCAASGSIFGLYAMGWYRQAPGKEREFVASITYSGGSTYYADSVKGRFTISRDNAKNTVYLQMNSLKPEDTAVYYCAAESYWGYDYWGQGTQVTVSS | high polyreactivity |
| HVQLQESAGGLVQAGGSLRLSCAASGNISYSRNMGWYRQAPGKERELVAAIDRGAITYYADSVKGRFTISRDNATNTVYLQIYSLKPEDTAVYYCAAEYHDRWDHRYWGQGTHVTVSS | high polyreactivity |
| QVQLVESGGGLVQAGGSLRLSCAASGSIFSYYAMGWYRQAPGKERELVAAISWTGGSTYYADSVKGRFTISRDNAKNTVYLQMNSLKPEDTAVYYCAADSPRSDRDSYDYWGQGTQVTVSS | high polyreactivity |
| QVQLVESGGGLVQAGGSLRLSCAASGRIFSRNTMGWYRQAPGKEREFVAAISQSGGRTYYADSVKGRFTISRDNAKNTVYLQMNSLKPEDTAVYYCAAPSQSRGYYYWGQGTQVTVSS | high polyreactivity |
| QVQLVESGGGLVQAGGSLRLSSAASGLTIAPYARGWYRPAPGKVWELVAAITQRGSSTYYADSVKGRFTISRDNAKNTVYLQMNSLKRVDTAVYYCAARYRARYYWGQGTQVTVSS | high polyreactivity |
| QVQLVESGGGLVQAGGSLRLSCAASGRIFRNNAMGGDRQAPGKERELVASITSSGGSTYYADSVKGRFTISRDNAKNTVYLQMNSLKPEDTAVYYCAAYTRSGYGYKLYYYWGQGTQVNVSS | high polyreactivity |
| QVQLVESGGGLVQAGGSLRLSCAASGSTFAKYTMGWYRQAPGKERELVAAISQRGGSTYYADSVKGRFTISRDNAKNTVYLQMNSLKPEDTAVYYCNVRAYAWRYEYWGQGTQVTVSS | high polyreactivity |
| QVQLVESGGGLVQAGGSLRLRCAASGLIFPYNAMGWYRQAPGKERELVAAIDTRGSSTYYADSVKGRFTISRDNAKNTVYLQMNSLKPEDSAVYYCNARTGRSPTGFRYWGQGTEVTVSS | high polyreactivity |
| QVQLVESGGGFVQAGGSLRLSCAASGNIFESYGMGWYRHAPGKERELVATINSSSGSTYYADSVKGRFTISRDNAKNTVYLQMNSLKPEDTAVYYCAAEWYPYPWGYGYWGQGTQVTVSS | low polyreactivity |
| QVQLVESGGGLVQAGGSLRLSCAASGSIFYGNGMGWYRQAPGKERELVAVISVSGGRTFYADSVKGRFTISRDNAKNTVYLQMNSLKPEDTAVYYCATRTYRVDPEFGYWGQGTQVTVSS | high polyreactivity |
| QVQLVESGGGLVQAGGSLRLSCAASGFTFNYNTMGWYRQAPGKERELVARISRSGGRTYYADSVKGRFTISRDNAKNTVYLQMNSLKPEDTAVYYCNTDYYGVRHRYDYWGQGTQVTVSS | high polyreactivity |
| QVQLVESGGGLVQAGGSLRLSCAASGRIFNAYAMGGYRQAPGKERELVAAISGGGRTYYADSVKGRFTISRDNAKNTVYLQMNSLKPEDTAVYYCAADSPTQSTLGKYDYWGQGTQVTVSS | high polyreactivity |

| Sequence | polyreactivity (PSR sort gate) |
| --- | --- |
| QVQLVESGGGLVQAGGSLRLSCAASGFTFSDNAMGWDRQAPGKERELVATISQSSGSTSYADSVKGRFTISRDYAKNTVYLQLNSLKPEDTAVYSCANRRLFYWGKGTQVTVSS | low polyreactivity |
| QVQLVESGAGLVQAGGSLRLSCAASGIIFPFYAMGWYRQAPGKEMELVAAITSDGNTNYADSVKGRFTFSRDNAKNTVYLQMNSLKPVDTAVYYCNAETQYAVLSWHSTRHDYWGQGTQVTLSS | low polyreactivity |
| QVQLVESGGGLVQAGGSLRLSCAASGYIFLGNAMGWYRQAPGKERELVAAINSSGGSTYYADSVKGRFTISRDNAKNTVYLQMNSLKPEDTAVYYCATSDRDGIYVVPHMDYWGQGTQVTVSS | low polyreactivity |
| QVQLVESGGGLVQAGGSLRLSCAASGSIFRPYAMGWYRQAPGKEMELVAAISSSGGSTYYADSVKGRFTISRDNAKNTVYLQMNSLKPEDTAVYYCAAESRSTWIHSRDYWGQGTQVTVSS | low polyreactivity |
| QVQLVESGGGLVKAGGSLRLSCAASGFIFRTYAMGWYRQAPRKERELVAAITGRGGTTYYADSVKGRFTISRDHAKNTVYLQMNSLKAEDTAVYYCADRSRDYNYNPYDYWGLGTQVTVSS | high polyreactivity |
| QVQLVESGGGLVQAGGSLRLSCAASGGTFRTYTMGWYRQAPGKERELVAAINFRGGSTYYADSVKGRFTISRDNAKNTVYLQMNSLKPEDTAVYYCATPLQQEGDWGQGTQVTVSS | high polyreactivity |
| QVQLVESGGVLLQAGGSLRLSCAASGRIFTLYDRGWYRQAPGKEREMDAAISNSAGSTYYADSVKGRFTISRDNAKNTVYLQMNSLKPEDTAGYYCARSYSYWGYRSVYYWGQGTQVTVSS | high polyreactivity |
| QVQLEDSGGGVVQAGGSLRLSCAASGSIYYPYAMGWNRQAPGKERELVARITSGGSTHYADSVKGRFTISRDNAKNTVYLQMNSLKPEETAVYYCNADYWFVESDYWGKGTQVTVSS | low polyreactivity |
| QVQLVESGGGLVQAGGSLRLSCAASGRISLYAMGWYRQAPGKEREMVAAINGRGGNTYYADSVKGRFTISRDNAKNTVYLQMNSLKPEDTAVYYCNAVTVNGPYGYDYWGQGTQVTVSS | high polyreactivity |
| QVQLVESGGGLVQAGGSLRLSCAASGSTFGHYAMGWYRQAPGKERELVAAISWSGASTYYADSVKGRFTISRDNAKNTVYLQMNSLKPEDTAVYYCAAESYRQTYYVGDGYEDDYWGQGTQVTVSS | low polyreactivity |
| QVQLVESGGGLVQAGGSLRLSSAASGSTFVWYAMGWYRQAPGKERELVASISGSGGRTYYADSVKGRFTISRDNAKNTVYLQMNSLKPEDTAVYYCAAYYRKTGYDYWGQGTQVTVSS | high polyreactivity |
| QVQRVESGGGLFQAGGRLRLSCAASGLIFPWYARGWYRQAPGKERELVAAISVRGGSTYYADSVKGRFTISRDNAKNTVYLQMNSLKPEDTAVYYCAASKRRASYRYYYWGQGTQVTVSS | high polyreactivity |
| QVQLVESGGGLVQAGGSLRLSCAASGSTFLAYAMGWYRQAPGKERELVAAISSRGSRTYYADSVKGRFTISRDNAKNTVYLQMNSLKPEDTAVYYCATPYSRSYSYRYDYWGQGTQVTVSS | high polyreactivity |
| QVHLVESGGGLVQAGGSLRLSCAASGGTIGTYAMGWYRQAPGKERELVAAISGRGGSTFYADSVKGRFTISRDNAKNSVYLQMNSLKPEDTAVYYSARGHGRSSKYDYWGQGTQVTVSS | high polyreactivity |
| QVQLVESGGGLVQAGGSLRLSCAASGRTFKRYAMGWYRQAPGKERELVAVITSGGSTYYADSVKGRFTISRDNAKNTVYLQMNSLKPEDTAVYYCAARYGVRIWHDALYGYWGQGTQVTVSS | high polyreactivity |
| QVQLVESGGGLVQAGGSLRLSCAASGSNFVGYAMGWYRQAPGKERELVAGITASGTNTYYADSVKGRFTISRDNAKNTVYLQMNSLKPEDTAVYYCAAESNRRFEGEYWGQGTQVTVSS | high polyreactivity |
| QVQLVESGGGLVQAGGSLRLICAASGRIFDGYAMGWYRQAPGKERELVAAISSDGGSTNYADSVKGRFTISRDNAKNTVYLQMNSLKPEDTAVYYCAESRLGEYLGYDYWGQGTQVTVSS | low polyreactivity |
| QVQLVESGVRLVQAGGSHRLSCAASARTFYPNAMGWYRQAPGKEREFVARISDSGGSSYYADSVKGRFTISRDNAKNTVYLQMNSLKPEDTAVYYCAADYVDPRVNEYDYWGQGTQVTVST | low polyreactivity |
| QVQLVESGGGLVQAGGSLRLSCAASGRTFAAYAMGWYRQAPGKERELVAGITSSSVRTYYADSVKGRFTISRDNAKNTVYLQMNSLKPEDTAVYYCNARADGSSSRWRPYSKFYYWGQGTQVTVSS | low polyreactivity |
| QVQLVESGGGLVQAGGSLRLSCAASGIIFRGNAMGWYRQAPGKERELVAGISSRGGSTYYADSVKGRFTISRDNAKNTVYLQMNSLKPEDTAVYYCAAQYRSYLSGYGYWGQGTQVTVSS | high polyreactivity |
| QVQLVESGGGLVQAGGSLRLSCAASGYIFFTYTMGWYRQAPGKERELVAAINGSVGSTYYADSVKGRFTISRDNAKNTVYLQMNSLKPEDTAVYYCAAEVVDFGYSYEWEDDYWGQGTQVTVSS | high polyreactivity |
